Assay results reported in publication doi:10.1101/2024.05.09.593331.

System: His6-Ubl1 in complex with N;Nucleocapsid (N) protein (SARS-CoV-2;SARS-CoV-2)
Experiment: EMSA
Settings: 50 mM Tris-HCl pH 8, 150 mM NaCl, 5 mM CaCl2 ([…]

Substance: 5' UTR 1-245 ssRNA
- Kd: 6.2 nM
